Positions of bridges follow the written chain, without caps; N, C: chain ends. No end group written: not given here.
T1: hu-IL-2Rβ subunit (human, UniProt P14784 27-240, limits assumed)
T1 construct: also called human interleukin-2 receptor subunit β; CD122
T1 sequence (looked up): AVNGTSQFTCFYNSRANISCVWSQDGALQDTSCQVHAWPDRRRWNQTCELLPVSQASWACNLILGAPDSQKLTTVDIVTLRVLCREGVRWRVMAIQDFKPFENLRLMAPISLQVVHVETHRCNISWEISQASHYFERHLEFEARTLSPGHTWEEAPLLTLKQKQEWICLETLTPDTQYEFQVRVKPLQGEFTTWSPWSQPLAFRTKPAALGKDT

B1: SEQ ID NO 406 (peptide)
peptide: MTDRAFWNPCWVARLGELCDLD
B2: SEQ ID NO 368 (peptide)
peptide: RQVPKQWYPCWMAALGELCDLE
B3: SEQ ID NO 413 (peptide)
peptide: IERAWEWRPCWLASVGELCDLE
B4: SEQ ID NO 100 (peptide)
peptide: DIGYYPCWMAQVGDLCDLDDEK
B5: SEQ ID NO 408 (peptide)
peptide: VRTRIWYPCWSAQLGELCDLD
B6: SEQ ID NO 405 (peptide)
peptide: DMFTHRWYPCSMAKLGELCDLE
B7: SEQ ID NO 377 (peptide)
peptide: RVSYPCWLARLGELCDMDLEE
B8: SEQ ID NO 367 (peptide)
peptide: SRSAGEYYPCWLAQLGELCDLA
B9: SEQ ID NO 378 (peptide)
peptide: TESWYPCWLANLGDLCDLEWSA
B10: SEQ ID NO 371 (peptide)
peptide: WYPCWMAQLGELCDLDEAPVQP
B11: SEQ ID NO 382 (peptide)
peptide: KNGPKSWYPCWMAQVGDLCDLD
B12: SEQ ID NO 394 (peptide)
peptide: WWPCSIARLGQLCDLD
B13: SEQ ID NO 412 (peptide)
peptide: FRVSRDWFPCWMAQLGEVCDLE
modifications: disulfide 10-19 (inferred)
B14: SEQ ID NO 103 (peptide)
peptide: WWPCWMAQLGEMCDLEYPYVPG
B15: SEQ ID NO 390 (peptide)
peptide: WYPCSIASLGELCDLE
B16: SEQ ID NO 421 (peptide)
peptide: FYPCWAAHLGDLCDLEYQEAGP
B17: SEQ ID NO 429 (peptide)
peptide: VDEFYPCSMAGLGELCDLERQN
B18: SEQ ID NO 401 (peptide)
peptide: ESEGRGWYPCWNALLGELCDLE
modifications: disulfide 10-19 (inferred)
B19: SEQ ID NO 370 (peptide)
peptide: QVMRLWYPCWMAQLGELCDLE
B20: SEQ ID NO 385 (peptide)
peptide: WLPCWRAQLGQLCDLD
B21: SEQ ID NO 427 (peptide)
peptide: ARTWWPCWRAKLGELCDLVVPE
B22: SEQ ID NO 419 (peptide)
peptide: WTPCWIAQLGELCDLEGRHGTV
B23: SEQ ID NO 372 (peptide)
peptide: RDIWWPCWVAQLGELCDLDDPQ
B24: SEQ ID NO 426 (peptide)
peptide: TEMWYPCWMAYQGELCDLDMTY
B25: SEQ ID NO 102 (peptide)
peptide: GERWKPCWIAQLGELCDLDFNW
B26: SEQ ID NO 99 (peptide)
peptide: RKHFYPCWMAQLGELCDLEGMP
B27: SEQ ID NO 383 (peptide)
peptide: SGTGPAWYPCFLASLGQLCDLE
B28: SEQ ID NO 391 (peptide)
peptide: WLPCYMAQLGDLCDLE
B29: SEQ ID NO 415 (peptide)
peptide: WYPCWIAKLGEVCDLDQGTTRQ
B30: SEQ ID NO 424 (peptide)
peptide: WYPCWLAQLGEVCDLDDGGGVF
B31: SEQ ID NO 428 (peptide)
peptide: HQGFYSCRLARLGELCDLDTGW
B32: SEQ ID NO 416 (peptide)
peptide: WYPCWLAHLGELCDLDWKGRND
B33: SEQ ID NO 402 (peptide)
peptide: RWTQAQWYPCWLAQLGELCDLE
B34: SEQ ID NO 410 (peptide)
peptide: ARGEYRWFPCWMARLGELCDLE
B35: SEQ ID NO 417 (peptide)
peptide: WYPCWRAQLGELCDLVDLGSHL
modifications: disulfide 4-13 (inferred)
B36: SEQ ID NO 386 (peptide)
peptide: LFPCWLAQLGELCDLE
B37: SEQ ID NO 389 (peptide)
peptide: MYPCWIAHLGELCDLD
B38: SEQ ID NO 393 (peptide)
peptide: WYPCWLASLGEVCDLE
B39: SEQ ID NO 375 (peptide)
peptide: RSGDKAFFPCWLAQLGDLCDLD
B40: SEQ ID NO 397 (peptide)
peptide: WKPCWMALLGELCDLE
B41: SEQ ID NO 400 (peptide)
peptide: LGSKRQWYPCWVAHLGELCDLE
B42: SEQ ID NO 418 (peptide)
peptide: WSPCWMASLGDLCDLEETRQTE
B43: SEQ ID NO 374 (peptide)
peptide: YAEWYPCWMARVGEVCDLEVTP
B44: SEQ ID NO 399 (peptide)
peptide: EEQSRGFLPCWMALLGELCDLD
B45: SEQ ID NO 404 (peptide)
peptide: LSSKGWYPCWKARLGDLCDLE
modifications: disulfide 9-18 (inferred)
B46: SEQ ID NO 379 (peptide)
peptide: WLPCWMADVGDLCDLD
B47: SEQ ID NO 420 (peptide)
peptide: LPCWIAQLGDLCDLEPEPSPE
B48: SEQ ID NO 407 (peptide)
peptide: NVTYTQWFPCWLARLGELCDLV
B49: SEQ ID NO 403 (peptide)
peptide: LHAGRWNPCWLAQLGELCDLE
B50: SEQ ID NO 409 (peptide)
peptide: AMARRYLPCWIAKLGELCELD
modifications: disulfide 9-18 (inferred)
B51: SEQ ID NO 373 (peptide)
peptide: SATWYPCFLANLGELCDLEQEN
B52: SEQ ID NO 423 (peptide)
peptide: WRPCWMAHLGDLCDLEMANENP
B53: SEQ ID NO 396 (peptide)
peptide: WYPCWLAQLGELCDAE
B54: SEQ ID NO 101 (peptide)
peptide: DSDWWPCWMAQLGELCDLEDAR
B55: SEQ ID NO 104 (peptide)
peptide: QTKLEGWYPCWMAQLGELCDLD
B56: SEQ ID NO 381 (peptide)
peptide: QGTKWHWNPCWMAQLGELCDLD
B57: SEQ ID NO 380 (peptide)
peptide: WHPCWMARLGELCDLD
B58: SEQ ID NO 414 (peptide)
peptide: VASERFYPCWIARLGELCDVE
modifications: disulfide 9-18 (inferred)
B59: SEQ ID NO 422 (peptide)
peptide: WLPCWLAPLGDLCDMDMSAVMN
B60: SEQ ID NO 398 (peptide)
peptide: RYPCWRAKLGELCDLD
B61: SEQ ID NO 411 (peptide)
peptide: YLERSRWYPCFIAQLGELCDLE

Target: T1, hu-IL-2Rβ subunit
Assay: phage ELISA competition assay

IC50, < 100 µM:
B1
B2
B3
B4
B5
B6
B7
B8
B9
B10
B11
B12
B13
B14
B15
B16
B17
B18
B19
B20
B21
B22
B23
B24
B25
B26
B27
B28
B29
B30
B31
B32
B33
B34
B35
B36
B37
B38
B39
B40
B41
B42
B43
B44
B45
B46
B47
B48
B49
B50
B51
B52
B53
B54
B55
B56
B57
B58
B59
B60
B61
